This data set concerns the molecule itself. The data set is described as follows: bead aggregation assay; EC-N-Cdh coated on Dynabeads (40 μg protein per 40 μl beads, o/n 4 °C); binding buffer 50 mM Tris-HCl pH 7.2, 100 mM NaCl, 10 mM KCl, 0.2% BSA; 2 mM CaCl2 (2 mM EDTA as control); room temperature; aggregate size imaged over 1 h.

From article PMC7994789, “Glycosyltransferase POMGNT1 deficiency strengthens N-cadherin-mediated cell–cell adhesion” (The Journal of Biological Chemistry, 2021) come the findings set out here.

B1: recombinant extracellular domain (EC) of N-cadherin (EC-N-Cdh) purified from ΔPOMGnT1 HEK293T cells (domain or fragment, mouse, UniProt P15116 160-724, looked up)
chain: DWVIPPINLPENSRGPFPQELVRIRSDRDKNLSLRYSVTGPGADQPPTGIFIINPISGQLSVTKPLDRELIARFHLRAHAVDINGNQVENPIDIVINVIDMNDNRPEFLHQVWNGSVPEGSKPGTYVMTVTAIDADDPNALNGMLRYRILSQAPSTPSPNMFTINNETGDIITVAAGLDREKVQQYTLIIQATDMEGNPTYGLSNTATAVITVTDVNDNPPEFTAMTFYGEVPENRVDVIVANLTVTDKDQPHTPAWNAAYRISGGDPTGRFAILTDPNSNDGLVTVVKPIDFETNRMFVLTVAAENQVPLAKGIQHPPQSTATVSVTVIDVNENPYFAPNPKIIRQEEGLHAGTMLTTLTAQDPDRYMQQNIRYTKLSDPANWLKIDPVNGQITTIAVLDRESPNVKNNIYNATFLASDNGIPPMSGTGTLQIYLLDINDNAPQVLPQEAETCETPEPNSINITALDYDIDPNAGPFAFDLPLSPVTIKRNWTINRLNGDFAQLNLKIKFLEAGIYEVPIIITDSGNPPKSNISILRVKVCQCDSNGDCTDVDRIVGAGLGTGA
modifications: N-glycans at Asn273, 325, 402, 572, 622, 651, 692: nongalactosylated complex-type N-glycans with a bisecting GlcNAc dominate at all sites except Asn651 and Asn692; galactosylation (-27% on average) and sialylation (-16% on average) decreased against the WT-derived protein; O-mannosylation as in the WT-derived protein
notes: N-cadherin (neural cadherin), mouse, extracellular domain (EC1-EC5) amplified from mouse cDNA; same construct as m1, other host cells; Same polypeptide as m1; It differs only in the N-glycans, because it was made in POMGNT1 knockout cells; See the note of m1 for the limits read from the primers; also called ΔPOMGnT1-derived N-Cdh; N-Cdh from ΔPOMGnT1 cells; source: ΔPOMGnT1 (POMGNT1 knockout) …
On to B1, for which the binding result was “binds”.

B2: recombinant extracellular domain (EC) of N-cadherin (EC-N-Cdh) purified from WT HEK293T cells (domain or fragment, mouse, UniProt P15116 160-724, looked up)
chain: DWVIPPINLPENSRGPFPQELVRIRSDRDKNLSLRYSVTGPGADQPPTGIFIINPISGQLSVTKPLDRELIARFHLRAHAVDINGNQVENPIDIVINVIDMNDNRPEFLHQVWNGSVPEGSKPGTYVMTVTAIDADDPNALNGMLRYRILSQAPSTPSPNMFTINNETGDIITVAAGLDREKVQQYTLIIQATDMEGNPTYGLSNTATAVITVTDVNDNPPEFTAMTFYGEVPENRVDVIVANLTVTDKDQPHTPAWNAAYRISGGDPTGRFAILTDPNSNDGLVTVVKPIDFETNRMFVLTVAAENQVPLAKGIQHPPQSTATVSVTVIDVNENPYFAPNPKIIRQEEGLHAGTMLTTLTAQDPDRYMQQNIRYTKLSDPANWLKIDPVNGQITTIAVLDRESPNVKNNIYNATFLASDNGIPPMSGTGTLQIYLLDINDNAPQVLPQEAETCETPEPNSINITALDYDIDPNAGPFAFDLPLSPVTIKRNWTINRLNGDFAQLNLKIKFLEAGIYEVPIIITDSGNPPKSNISILRVKVCQCDSNGDCTDVDRIVGAGLGTGA
modifications: N-glycans at Asn190 (scarcely), 273, 325, 402, 572, 622, 651, 692 (complex-type, Asn651 high-mannose-type); nonelongated O-linked mannose at 15 sites (Table S6)
notes: N-cadherin (neural cadherin), mouse, extracellular domain (EC1-EC5) amplified from mouse cDNA; Cloned AscI/XhoI into pSecTag2 (Invitrogen); also called WT-derived N-Cdh; N-Cdh extracellular domain; source: HEK293T (WT), stably transfected with pMLHD7, secreted into serum-free medium, purified (HisTrap); not shown: His8, C-terminal, kept
Regarding B2, the binding result is given as “binds”.
